Biological target: NaV1.5 (main cardiac voltage-gated sodium channel) (mouse (endogenous in heart)) (UniProt Q9JJV9)
Assay: co-IP

UniProt Q9JJV9, sequence (Q9JJV9 whole entry): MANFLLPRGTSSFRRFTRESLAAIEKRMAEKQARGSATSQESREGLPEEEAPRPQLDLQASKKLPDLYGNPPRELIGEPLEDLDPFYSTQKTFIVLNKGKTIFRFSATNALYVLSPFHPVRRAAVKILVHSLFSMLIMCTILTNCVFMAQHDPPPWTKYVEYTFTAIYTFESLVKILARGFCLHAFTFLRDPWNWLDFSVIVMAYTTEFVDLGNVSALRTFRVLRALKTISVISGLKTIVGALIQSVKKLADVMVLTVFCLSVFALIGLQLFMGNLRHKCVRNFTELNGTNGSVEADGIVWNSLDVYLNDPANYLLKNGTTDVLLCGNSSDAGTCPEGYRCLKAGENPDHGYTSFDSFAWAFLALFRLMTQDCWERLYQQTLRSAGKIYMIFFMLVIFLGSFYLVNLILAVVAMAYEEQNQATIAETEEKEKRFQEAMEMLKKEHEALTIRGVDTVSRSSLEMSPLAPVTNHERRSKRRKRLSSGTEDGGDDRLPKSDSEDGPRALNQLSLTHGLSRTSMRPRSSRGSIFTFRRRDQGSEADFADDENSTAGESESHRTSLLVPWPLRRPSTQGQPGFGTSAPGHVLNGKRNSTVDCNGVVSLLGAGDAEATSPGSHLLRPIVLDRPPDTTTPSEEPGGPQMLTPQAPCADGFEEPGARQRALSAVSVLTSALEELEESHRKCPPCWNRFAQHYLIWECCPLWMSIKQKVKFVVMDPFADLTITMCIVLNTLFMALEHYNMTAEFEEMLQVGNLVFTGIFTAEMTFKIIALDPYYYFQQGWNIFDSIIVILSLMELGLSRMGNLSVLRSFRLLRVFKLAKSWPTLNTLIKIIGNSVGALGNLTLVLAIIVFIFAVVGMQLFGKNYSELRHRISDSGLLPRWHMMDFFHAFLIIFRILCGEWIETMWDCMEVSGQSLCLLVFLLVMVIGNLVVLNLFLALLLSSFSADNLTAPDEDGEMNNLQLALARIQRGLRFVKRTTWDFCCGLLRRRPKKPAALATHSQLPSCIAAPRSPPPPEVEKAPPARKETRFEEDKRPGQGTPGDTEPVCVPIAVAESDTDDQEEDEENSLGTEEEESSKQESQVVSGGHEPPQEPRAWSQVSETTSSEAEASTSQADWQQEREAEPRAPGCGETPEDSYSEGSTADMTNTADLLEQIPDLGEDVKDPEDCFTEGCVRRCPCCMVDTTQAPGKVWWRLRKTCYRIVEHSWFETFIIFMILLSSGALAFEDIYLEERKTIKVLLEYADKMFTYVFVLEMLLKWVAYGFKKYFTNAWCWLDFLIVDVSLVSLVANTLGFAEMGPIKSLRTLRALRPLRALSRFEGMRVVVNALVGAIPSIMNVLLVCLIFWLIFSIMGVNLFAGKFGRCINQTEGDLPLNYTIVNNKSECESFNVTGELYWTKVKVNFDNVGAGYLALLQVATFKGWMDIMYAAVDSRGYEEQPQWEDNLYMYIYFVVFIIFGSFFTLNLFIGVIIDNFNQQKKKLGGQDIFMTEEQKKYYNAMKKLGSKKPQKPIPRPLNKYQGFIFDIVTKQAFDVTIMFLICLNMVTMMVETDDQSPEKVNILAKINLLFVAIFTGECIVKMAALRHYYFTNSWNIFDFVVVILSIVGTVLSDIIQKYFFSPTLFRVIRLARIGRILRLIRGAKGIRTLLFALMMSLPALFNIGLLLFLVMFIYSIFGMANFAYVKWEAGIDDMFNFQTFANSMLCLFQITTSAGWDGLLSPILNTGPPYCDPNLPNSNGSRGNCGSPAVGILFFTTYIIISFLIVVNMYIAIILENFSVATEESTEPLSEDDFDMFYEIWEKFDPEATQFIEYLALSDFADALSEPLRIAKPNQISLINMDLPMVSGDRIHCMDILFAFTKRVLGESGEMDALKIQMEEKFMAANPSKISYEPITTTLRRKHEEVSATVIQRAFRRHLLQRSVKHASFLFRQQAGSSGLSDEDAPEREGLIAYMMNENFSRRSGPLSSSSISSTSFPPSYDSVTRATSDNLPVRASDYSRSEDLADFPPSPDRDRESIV

FGF13 (fibroblast growth factor homologous factor 13) (from UniProt P70377 1-245) (natural protein)
percent of FGF13 depleted from the lysate by immunoprecipitation of NaV1.5: 35%

From article PMC12903045
